As usually defined, the Kd is the constant that tells how readily two partners part at equilibrium. High values mean weaker binding, low ones tighter binding. Broadly, the Km is the substrate concentration at which the rate is half of its maximum. The term kcat denotes the maximal rate divided by the concentration of active sites. As a reminder, the kcat/Km is the turnover number divided by the Michaelis constant.

One series concerns the target T1, GOX0716 (Gluconobacter oxydans, UniProt Q5FT03).
T1 construct: recombinant N-terminal His-tagged protein
T1 sequence (Q5FT03 1-257): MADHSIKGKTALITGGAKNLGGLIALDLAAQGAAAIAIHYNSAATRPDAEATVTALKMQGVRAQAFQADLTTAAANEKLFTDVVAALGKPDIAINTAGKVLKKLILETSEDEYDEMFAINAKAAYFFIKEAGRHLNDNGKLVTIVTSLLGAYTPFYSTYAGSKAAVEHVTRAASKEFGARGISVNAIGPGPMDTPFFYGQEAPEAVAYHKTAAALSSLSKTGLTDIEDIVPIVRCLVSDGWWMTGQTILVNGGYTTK
Briefly: tryptophan fluorescence quenching. Type of series: binding.

The target in the next series is T2, GOX1462 (Gluconobacter oxydans, UniProt Q5FQY5).
T2 construct: recombinant N-terminal His-tagged protein
T2 sequence (Q5FQY5 1-359): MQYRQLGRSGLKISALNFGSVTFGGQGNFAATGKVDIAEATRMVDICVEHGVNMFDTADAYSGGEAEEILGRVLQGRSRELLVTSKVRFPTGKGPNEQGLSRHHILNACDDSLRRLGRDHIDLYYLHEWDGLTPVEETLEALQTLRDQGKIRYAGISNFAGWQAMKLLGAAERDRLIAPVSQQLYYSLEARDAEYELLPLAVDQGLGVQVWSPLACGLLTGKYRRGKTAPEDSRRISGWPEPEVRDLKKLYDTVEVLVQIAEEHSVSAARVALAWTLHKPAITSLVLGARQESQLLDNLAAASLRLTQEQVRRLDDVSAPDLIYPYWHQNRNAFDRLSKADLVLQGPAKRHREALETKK
Briefly: tryptophan fluorescence quenching. Type of series: binding.

Substrate in series [1]: O=C1C(=O)c2ccccc2-c2ccccc21
Briefly: purified protein. As to conditions: NADPH. Format: biochemical, Gluconobacter oxydans.

Substrate in series [2]: O=C1C=C2C(=CCOC2O)O1
Briefly: purified protein. Format: biochemical, Gluconobacter oxydans.

Substrate in series [3]: O=C1Nc2ccccc2C1=O
Briefly: purified protein. Type of series: biochemical, Gluconobacter oxydans. As to conditions: NADPH.

Substrate in series [4]: CCCC=O
Briefly: purified protein. Type of series: biochemical, Gluconobacter oxydans. As to conditions: NADPH.

Substrate in series [5]: CC(=O)C=O
Briefly: purified protein, by the assay type. Also on record: steady-state Michaelis-Menten kinetics of carbonyl substrate reduction, NADPH consumption at 340 nm, 25 °C. The conditions noted are these: 25.0 °C. The protocol: (§1) For substrate specificity, kinetic measurements were performed at 25 °C in triplicate in 100 mM potassium phosphate buffer, pH 6.0 (for GOX0716) or pH 7.0 (for GOX1462). Substrate utilization was monitored by the decrease in the level of NADPH at 340 nm using a BioTek Epoch 2 microplate reader. Reactions were conducted in a total volume of 200 μL. The molar extinction coefficient of NADPH was determined by constructing a linear regression standard line using NADPH standards of known concentrations. One unit (1 U) of enzyme activity is defined as the amount of enzyme required to oxidize 1 μmol NADPH per minute. Stock solutions of substrates were prepared in dimethyl sulfoxide (DMSO). All kinetic data fitting was performed using nonlinear regression with GraphPad Prism, version 8. All data were fitted to the Michaelis–Menten equation. The kinetic parameters for each enzyme were determined at their respective pH optimum.

Substrate in series [6]: CCC=O
Briefly: purified protein, by the assay type. As to conditions: 25.0 °C. Details: steady-state Michaelis-Menten kinetics of carbonyl substrate reduction, NADPH consumption at 340 nm, 25 °C. The protocol: as §1

Substrate in series [7]: O=CC(O)CO
Briefly: purified protein, by the assay type. Also on record: steady-state Michaelis-Menten kinetics of carbonyl substrate reduction, NADPH consumption at 340 nm, 25 °C. The conditions noted are these: 25.0 °C. The protocol:
as §1

Substrate in series [8]: CCCCCC=O
Briefly: purified protein, by the assay type. As to conditions: 25.0 °C. Details: steady-state Michaelis-Menten kinetics of carbonyl substrate reduction, NADPH consumption at 340 nm, 25 °C. The protocol: as §1

Substrate in series [9]: O=Cc1ccccc1
Briefly: purified protein, by the assay type. As to conditions: 25.0 °C. Details: steady-state Michaelis-Menten kinetics of carbonyl substrate reduction, NADPH consumption at 340 nm, 25 °C. The protocol:
as §1

Substrate in series [10]: CCCCCCC=O
Briefly: purified protein, by the assay type. Also on record: steady-state Michaelis-Menten kinetics of carbonyl substrate reduction, NADPH consumption at 340 nm, 25 °C. The conditions noted are these: 25.0 °C. The protocol: as §1

Substrate in series [11]: O=Cc1ccco1
Briefly: purified protein. The conditions noted are these: NADPH. Format: biochemical, Gluconobacter oxydans.

Substrate in series [12]: O=CCO
Briefly: purified protein, by the assay type. Also on record: steady-state Michaelis-Menten kinetics of carbonyl substrate reduction, NADPH consumption at 340 nm, 25 °C. The conditions noted are these: 25.0 °C. The protocol:
as §1

Substrate in series [13]: CCCC=O
Briefly: purified protein, by the assay type. Details: steady-state Michaelis-Menten kinetics of carbonyl substrate reduction, NADPH consumption at 340 nm, 25 °C. The conditions noted are these: 25.0 °C. The protocol: as §1

Setting [14] is: NADPH docked as the ring-opened aldehyde form: hydrogen bonds with catalytic Tyr61, Ser157 and Asn158.
[15] abbreviates: NADPH docked as the ring-opened aldehyde form: hydrogen bonds with catalytic Tyr159 and Thr146, Tyr156, Glu201, Pro191, Pro189.

Consider `NC(=O)C1=CN([C@@H]2O[C@H](COP(=O)(O)OP(=O)(O)OC[C@H]3O[C@@H](n4cnc5c(N)ncnc54)[C@H](OP(=O)(O)O)[C@@H]3O)[C@@H](O)[C@H]2O)C=CC1` [NADPH], for which the figures for the dissociation constant (Kd) on GOX0716 and on GOX1462 were 20.5 ± 2.86 µM and 30.3 ± 3.56 µM, respectively.

B1: GOX1462 (Gluconobacter oxydans 621H) (protein)
chain: T2 sequence (Q5FQY5 1-359)
notes: recombinant N-terminal His-tagged protein
B1: the Michaelis-Menten constant (Km) turned out to be 31.9 ± 4.85 µM in the series “purified protein [1]”; 178 ± 25.4 µM in the series “purified protein [2]” (setting [14]); 107 ± 17.1 µM in the series “purified protein [3]”; 139 ± 14.4 µM in the series “purified protein [4]”; 1990 ± 238 µM in series [5]; 164 ± 13.7 µM in [6]. Further, the Km in series [7] was 483 ± 85.9 µM; in series [8] it was 513 ± 141 µM; in series [9], 258 ± 37.7 µM; in series [10], 178 ± 15.6 µM. Also, the kcat came out at 5.79 ± 0.234 s⁻¹ in the series “purified protein [1]”; 0.0389 ± 0.00145 s⁻¹ in the series “purified protein [2]” (setting [14]); 0.163 ± 0.00536 s⁻¹ in “purified protein [3]”; 0.0241 ± 0.000654 s⁻¹ in the series “purified protein [4]”; 0.221 ± 0.0159 s⁻¹ in series [5]; 0.0228 ± 0.000523 s⁻¹ in series [6]. For the same molecule, the turnover number (kcat) is 0.0181 ± 0.00121 s⁻¹ in series [7], 0.0251 ± 0.00251 s⁻¹ in series [8], 0.0184 ± 0.000807 s⁻¹ in series [9] and 0.027 ± 0.000671 s⁻¹ in series [10]. Also, the catalytic efficiency (kcat/Km) in the series “purified protein [1]” is 182000 ± 28600 M⁻¹ s⁻¹; in the series “purified protein [2]” (setting [14]), 219 ± 32.3 M⁻¹ s⁻¹; in the series “purified protein [3]”, 1520 ± 248 M⁻¹ s⁻¹; in the series “purified protein [4]”, 173 ± 18.5 M⁻¹ s⁻¹; in series [5], 111 ± 15.5 M⁻¹ s⁻¹; in [6], 139 ± 12 M⁻¹ s⁻¹. The kcat/Km in series [7] turned out to be 37.5 ± 7.12 M⁻¹ s⁻¹; in series [8], 48.9 ± 14.3 M⁻¹ s⁻¹; in series [9] it was 71.3 ± 10.9 M⁻¹ s⁻¹; in [10], 152 ± 13.8 M⁻¹ s⁻¹.

B2: GOX0716 (Gluconobacter oxydans 621H) (protein)
chain: T1 sequence (Q5FT03 1-257)
notes: as for B1
Take B2: the Km in the series “purified protein [1]” came to 46.9 ± 8.17 µM; in the series “purified protein [2]” (setting [15]), 1300 ± 213 µM; in the series “purified protein [11]”, 94.8 ± 8.91 µM; in the series “purified protein [3]”, 282 ± 40.3 µM; in series [6] it was 417 ± 52.1 µM; in series [8], 509 ± 71.7 µM. The values for the Km in [12], in [13] and in series [10] were 607 ± 110 µM, 351 ± 40.4 µM and 637 ± 72.8 µM, respectively. Further, the kcat in the series “purified protein [1]” amounted to 3.14 ± 0.181 s⁻¹; in the series “purified protein [2]” (setting [15]), 0.0468 ± 0.00402 s⁻¹; in the series “purified protein [11]”, 0.0103 ± 0.000223 s⁻¹; in the series “purified protein [3]”, 0.127 ± 0.00588 s⁻¹; in series [6] it was 0.0442 ± 0.00201 s⁻¹; in series [8] it was 0.00946 ± 0.000516 s⁻¹. Besides, the kcat in series [12] was determined as 0.00643 ± 0.000459 s⁻¹; in [13], 0.0339 ± 0.00135 s⁻¹; in series [10], 0.0402 ± 0.00191 s⁻¹. Also, the specificity constant (kcat/Km) in the series “purified protein [1]” is 67000 ± 12300 M⁻¹ s⁻¹; in “purified protein [2]” (setting [15]) it was 36 ± 6.66 M⁻¹ s⁻¹; in the series “purified protein [11]”, 109 ± 0.0964 M⁻¹ s⁻¹; in the series “purified protein [3]”, 450 ± 67.6 M⁻¹ s⁻¹; in series [6] it was 106 ± 14.1 M⁻¹ s⁻¹; in series [8] it was 18.6 ± 2.81 M⁻¹ s⁻¹. The kcat/Km stood at 10.6 ± 2.06 M⁻¹ s⁻¹ in series [12], 96.6 ± 11.8 M⁻¹ s⁻¹ in series [13] and 63.1 ± 7.81 M⁻¹ s⁻¹ in series [10].

Source of the values: paper PMC11926874, “Patulin Detoxification by Evolutionarily Divergent Reductases of Gluconobacter oxydans ATCC 621” (Journal of Agricultural and Food Chemistry, 2025).
